From publication PMC12182300, “Biochemical impact of p300-mediated acetylation of replication protein A: Implications for DNA metabolic pathway choice” (The Journal of Biological Chemistry, 2025)

How the values were obtained:
[1] = biological target: T1, Replication Protein A (RPA), 70 kDa subunit RPA1 (Homo sapiens, UniProt P27694); assay: RPAi titration of purified Um-RPA binding to ssDNA (gel data, Fig. S6)
T1 construct: Full-length human (h)RPA heterotrimer, unmodified (Um-RPA); with RPA2 and RPA3 (RPA heterotrimer)
T1 sequence (P27694 whole entry): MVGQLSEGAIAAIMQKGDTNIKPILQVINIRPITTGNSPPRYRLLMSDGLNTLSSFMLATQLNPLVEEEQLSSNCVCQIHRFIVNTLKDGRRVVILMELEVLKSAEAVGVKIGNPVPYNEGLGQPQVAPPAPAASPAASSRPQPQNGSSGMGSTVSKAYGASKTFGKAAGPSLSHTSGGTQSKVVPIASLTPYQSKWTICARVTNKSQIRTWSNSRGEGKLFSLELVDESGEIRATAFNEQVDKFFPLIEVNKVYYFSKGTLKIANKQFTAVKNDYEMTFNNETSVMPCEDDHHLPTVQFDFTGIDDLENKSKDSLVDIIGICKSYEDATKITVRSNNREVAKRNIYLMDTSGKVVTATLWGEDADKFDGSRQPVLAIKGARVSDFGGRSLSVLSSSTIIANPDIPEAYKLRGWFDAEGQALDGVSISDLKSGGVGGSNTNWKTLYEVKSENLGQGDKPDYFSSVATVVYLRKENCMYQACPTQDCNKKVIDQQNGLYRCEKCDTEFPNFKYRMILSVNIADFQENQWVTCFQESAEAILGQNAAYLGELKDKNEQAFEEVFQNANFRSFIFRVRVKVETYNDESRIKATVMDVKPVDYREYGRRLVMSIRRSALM
T1 sequence (P15927 whole entry partner): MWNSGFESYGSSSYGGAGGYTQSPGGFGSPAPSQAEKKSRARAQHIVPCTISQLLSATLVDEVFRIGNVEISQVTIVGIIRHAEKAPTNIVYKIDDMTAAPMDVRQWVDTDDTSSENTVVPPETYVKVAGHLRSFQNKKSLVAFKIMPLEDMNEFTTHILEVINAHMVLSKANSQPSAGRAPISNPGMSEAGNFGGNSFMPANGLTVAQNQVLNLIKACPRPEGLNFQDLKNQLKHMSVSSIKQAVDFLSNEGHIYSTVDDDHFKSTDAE
T1 sequence (P35244 2-121 partner): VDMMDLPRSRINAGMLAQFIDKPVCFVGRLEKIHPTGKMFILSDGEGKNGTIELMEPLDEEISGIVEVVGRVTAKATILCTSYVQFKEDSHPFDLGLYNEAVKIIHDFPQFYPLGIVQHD

[2] = biological target: T2, Um-RPA (unmodified RPA heterotrimer) (Homo sapiens, UniProt P27694;P15927;P35244 1-616;1-270;1-121); assay: BLI; KD only in Fig. 4D; higher KD than Ac-RPA; EMSA: 50 mM Tris-HCl pH 8.0, 2 mM DTT, 30 mM NaCl, 0.1 mg/ml BSA, 5% glycerol, 10 min 37 °C; FEN1/RPA flap EMSA: same with 20 mM NaCl, 20 uM EDTA; BLI: 1X HAT buffer, 31.25-250 nM RPA; settings: protein: recombinant; copies: 1;1;1; label: 3'-biotin (BLI); 5'-32P (EMSA); single strand
T2 sequence (P27694 whole entry, chain 1 of 3): as the sequence (P27694 whole entry) above
T2 sequence (P15927 whole entry, chain 2 of 3): as the sequence (P15927 whole entry partner) above
T2 sequence (P35244 whole entry, chain 3 of 3): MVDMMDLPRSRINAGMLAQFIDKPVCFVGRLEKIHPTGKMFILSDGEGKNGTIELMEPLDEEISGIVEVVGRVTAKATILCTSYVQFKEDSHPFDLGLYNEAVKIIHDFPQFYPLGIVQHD

[3] = biological target: FEN1 (UniProt P39748 1-380); assay: EMSA; 50 nM FEN1, 20 uM EDTA; high-affinity binding; EMSA: 50 mM Tris-HCl pH 8.0, 2 mM DTT, 30 mM NaCl, 0.1 mg/ml BSA, 5% glycerol, 10 min 37 °C; FEN1/RPA flap EMSA: same with 20 mM NaCl, 20 uM EDTA; BLI: 1X HAT buffer, 31.25-250 nM RPA; settings: protein: recombinant; double flap: 20 nt 5' flap (strand 2), 1 nt 3' flap (strand 3); 1:2 1:3; 1 nt 5' overhang on strand 1
Chain of FEN1 (P39748 whole entry): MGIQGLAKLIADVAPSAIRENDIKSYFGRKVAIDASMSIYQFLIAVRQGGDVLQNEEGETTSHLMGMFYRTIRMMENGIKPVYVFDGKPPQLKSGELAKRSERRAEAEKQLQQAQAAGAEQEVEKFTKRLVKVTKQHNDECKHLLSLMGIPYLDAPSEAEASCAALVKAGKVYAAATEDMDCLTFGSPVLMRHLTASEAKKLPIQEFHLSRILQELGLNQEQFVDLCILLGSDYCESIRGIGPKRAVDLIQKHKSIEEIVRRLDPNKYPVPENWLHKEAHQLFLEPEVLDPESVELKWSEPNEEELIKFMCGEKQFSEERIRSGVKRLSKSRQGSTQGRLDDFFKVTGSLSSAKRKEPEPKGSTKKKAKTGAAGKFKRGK

[4] = biological target: T2, Um-RPA (unmodified RPA heterotrimer); assay: BLI; KD only in Fig. 4D; smallest fold difference to Ac-RPA; EMSA: 50 mM Tris-HCl pH 8.0, 2 mM DTT, 30 mM NaCl, 0.1 mg/ml BSA, 5% glycerol, 10 min 37 °C; FEN1/RPA flap EMSA: same with 20 mM NaCl, 20 uM EDTA; BLI: 1X HAT buffer, 31.25-250 nM RPA; settings: protein: recombinant; copies: 1;1;1; label: 3'-biotin (BLI); 5'-TAMRA (EMSA); single strand
[5] = biological target: RPA1 DBD-F, unmodified (Homo sapiens, UniProt P27694 1-180); assay: EMSA; 25-150 nM protein, 25 nM DNA; EMSA: 50 mM Tris-HCl pH 8.0, 2 mM DTT, 30 mM NaCl, 0.1 mg/ml BSA, 5% glycerol, 10 min 37 °C; FEN1/RPA flap EMSA: same with 20 mM NaCl, 20 uM EDTA; BLI: 1X HAT buffer, 31.25-250 nM RPA; settings: protein: recombinant; tags: C-terminal His6; label: 5'-TAMRA; single strand
Chain of RPA1 DBD-F, unmodified (P27694 1-180): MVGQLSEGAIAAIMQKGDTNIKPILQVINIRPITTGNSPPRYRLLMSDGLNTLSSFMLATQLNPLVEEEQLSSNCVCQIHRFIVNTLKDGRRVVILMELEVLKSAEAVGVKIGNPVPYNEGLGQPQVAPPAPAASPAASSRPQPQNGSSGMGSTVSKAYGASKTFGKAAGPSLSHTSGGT

Molecule: DA1-73
- IC50 [1]: 6.43 ± 0.29 µM

Molecule: CCOc1ccc2cc(C3CC(c4ccc(I)cc4)=NN3C(=O)CCCC(=O)O)c(Cl)nc2c1 (stereo not shown) [TDRL-551]
- IC50 [1]: 4.46 ± 0.11 µM

Molecule: TTCACGCCTGTTAGTTAATTCACTGGCC (ssDNA) [LB.28 (28 nt)]
- binding result [2]: binds

Molecule: TTCACGCCTGTTAGTTAATTCACTGGCCGTAC (ssDNA) [LB.32 (32 nt)]
- binding result [2]: binds

B1: 20 nt double flap (U26:D43:T49) (structured_DNA)
DNA 1: GCCCAGTCACGTCGTTGTAAAACGGGTCGTGACTGGGAAAACCCTGGCG
DNA 2: TTAGTTAATTCACTGGCCGTCGTTTTACAACGACGTGACTGGG
DNA 3: CGCCAGGGTTTTCCCAGTCACGACCA
- binding result [3]: binds

Molecule: TTCACTATAACTACCTAATCTTCTGGCCGTACTGAACTACTGACA (ssDNA) [LB.45 (45 nt)]
- binding result [4]: binds

Molecule: TTCACGAGATTTACTTATTTCACTGCGGCT (ssDNA) [LB.30 (30 nt)]
- binding result [5]: no binding
